The target in data set [1] is T1, MBP-mTERF6.1 (without transit peptide) (Arabidopsis thaliana, UniProt Q9SZL6 25-333).
T1 sequence: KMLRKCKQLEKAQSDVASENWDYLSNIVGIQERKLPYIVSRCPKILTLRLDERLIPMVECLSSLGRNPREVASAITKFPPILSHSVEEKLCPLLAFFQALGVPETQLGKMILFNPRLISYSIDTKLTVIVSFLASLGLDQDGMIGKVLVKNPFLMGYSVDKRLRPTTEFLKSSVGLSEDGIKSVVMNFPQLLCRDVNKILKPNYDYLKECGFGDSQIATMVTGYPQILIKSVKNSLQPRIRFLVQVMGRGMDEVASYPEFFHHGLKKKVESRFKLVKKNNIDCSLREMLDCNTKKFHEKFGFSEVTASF
Kind of data set: EMSA; 5 mM MgCl2; stronger shift than probe A; weakened by 1-, 2-, 8-fold competitor; EMSA 20 uL: LightShift binding buffer, 5 mM MgCl2, 1 mM EDTA, 2.5% glycerol, 0.05% NP-40, 50 ng/uL poly(dI-dC), 20 fmol probe (printed 'fmal'), 0.5 ug protein. Particulars: protein: recombinant; tags: N-terminal MBP (pMAL-c5X); label: 5' biotin.

The target in data set [2] is T1, MBP-mTERF6.1 (without transit peptide). Kind of data set: EMSA; 5 mM MgCl2; shift greatly reduced by 200-fold unlabeled probe A; EMSA 20 uL: LightShift binding buffer, 5 mM MgCl2, 1 mM EDTA, 2.5% glycerol, 0.05% NP-40, 50 ng/uL poly(dI-dC), 20 fmol probe (printed 'fmal'), 0.5 ug protein. Particulars: protein: recombinant; tags: N-terminal MBP (pMAL-c5X); label: 5' biotin.

Regarding AATTTCTATTTTCCAGTCGAAC (ssDNA) [probe B (22 nt, single strand)], in data set [1], the binding result was “binds”.

B1: probe A (rpoA 3'-end, 122 bp) (dsDNA)
DNA 1: AATTTCTATTTTCCAGTCGAACCCATTTTAATTAATTAATTAAATTAATTAGAATTAGATATGTATCTAGGGAGAATTCATTTGGAAATGACTACTCCCTAGATACCTCCCTAGATACCCAC
DNA 2: GTGGGTATCTAGGGAGGTATCTAGGGAGTAGTCATTTCCAAATGAATTCTCCCTAGATACATATCTAATTCTAATTAATTTAATTAATTAATTAAAATGGGTTCGACTGGAAAATAGAAATT
Consider B1, for which, in data set [2], the binding result was “binds”.

For the origin of these results see publication PMC6085346, “A nuclear-encoded protein, mTERF6, mediates transcription termination of rpoA polycistron for plastid-encoded RNA polymerase-dependent chloroplast gene expression and chloroplast development”.
